From patent US7708999B2, “Remedies for arthritis” (Kyowa Hakko Kirin Co., Ltd., priority 2001, dated 2010)

Experiments:
[1] = system: rat adjuvant arthritis model; assay: Rat adjuvant arthritis model; format: in vivo
Method: The rat adjuvant arthritis model was performed in the following manner according to the method of Pearson et al. (Pearson CM. et al., Arthritis Rheum., 5, 654-658, 1962) using Lewis rats (female, 8 weeks old, Japan Charles River).
Mycobacterium butyricum (manufactured by Difco) was suspended in a liquid paraffin (manufactured by Wako Pure Chemical Industries, Ltd.) to a final concentration of 6 mg/mL, and sterilized with a autoclave. The resulting solution was intradermally injected into the rat right hind pad in an amount of 100 μL for sensitization. One group consisted of 8 to 10 rats. Anti-FGF-8 neutralizing antibody KM1334 was dissolved in saline to a final concentration of 2 mg/mL. The solution was intraperitoneally administered to a KM1334 administrated group once a day at a dose of 0.5 mL per 100 g of the body weight for each rat on the sensitization day of the rat adjuvant arthritis model and on days 3, 7, 10, 14 and 17 from the sensitization. To saline administrated group, only saline was intraperitoneally administered instead of the anti-FGF-8 neutralizing antibody KM1334 solution. Further, sodium diclofenac, an antiinflammatory agent, was dissolved in a 0.5 w/v % methyl cellulose solution to a final concentration of 0.3 mg/mL, and the solution was orally administered to a sodium diclofenac administrated group as a positive control once a day at a dose of 1 mL per 100 g of the body weight on days 4, 7 to 11 and 14 to 18 from the adjuvant sensitization day. 50 mg of methotrexate® for injection (manufactured by Wyeth Japan) as a metabolic antagonist was dissolved in a 0.5 w/v % methyl cellulose solution to a final concentration of 0.01 mg/mL, and the solution was administered to a methotrexate administrated group in the same manner as in the sodium diclofenac administrated group. Prednisolone (manufactured by Sigma-Aldrich), a steroidal agent, was suspended in a 0.5 w/v % methyl cellulose solution to a final concentration of 0.3 mg/mL, and the suspension was administered to a prednisolone administrated group in the same manner as in the sodium diclofenac administrated group. Further, a 0.5 w/v % methyl cellulose solution alone was orally administered to a solvent administrated group in the same manner. An untreated group was used, and it was not subjected to sensitization with Mycobacterium butyricum and administration of an agent. The volumes of the adjuvant-treated paw and the adjuvant-untreated paw were measured as time goes by using a device for measuring edemas of rat hind paw (TK-101, manufactured by Unicom).
Using urine collected for 24 hours at day 20 and day 21 after the sensitization, the amounts of glycosaminoglycan, deoxypyridinoline, hydroxyproline and creatinine in urine were measured. The amount of glycosaminoglycan in urine was measured by the DMMB method described in Example 1. The amount of hydroxyproline in urine was measured by the method of Ikeda et al. (Ikeda Shingo et al., Tokyo Eiken Nenpo, 36 277-282, 1985). That is, 0.8 mL of hydrochloric acid for amino acid analysis (manufactured by Kanto Kagaku) was added to 0.8 mL of urine to hydrolyze at 110° C. for 15 hours. To 0.5 mL of the hydrolyzed sample was added 2 mL of a 1.2 mol/L sodium hydroxide solution for neutralization. 1 mL of isopropanol was added to 0.5 mL of the neutralized sample, and 1 ml of an oxidant solution was added. The mixture was stirred well, and allowed to stand at room temperature for 5 minutes. […]

[2] = system: mouse collagen-induced arthritis model; assay: Mouse collagen-induced arthritis model; format: in vivo; settings: day 42; 2 mg/mL, 200 μL per mouse intraperitoneally; compared to saline administrated group
Method: The mouse collagen-induced arthritis model was prepared in the following manner according to the method of Kamada et al., (Kamada H. et al., Jpn. J. Pharmacol., 70, 169-175, 1996) using DBA/1J mice (male, 7 weeks old, Japan Charles River).
A bovine cartilage-derived type II collagen solution (manufactured by Collagen Gijutsu Kenshu) was mixed with a Freund's complete adjuvant (manufactured by Iatron) under ice cooling to form an emulsion which was adjusted such that the final concentration of the type II collagen became 1.5 mg/mL. The emulsion was intradermally injected in amount of 100 μL at the base of the tail of the mouse for sensitization. Twenty-one days later, the additional immunization was performed in the same manner. One group consisted of 10 mice. Anti-FGF-8 neutralizing antibody KM1334 was dissolved in a saline (manufactured by Otsuka Seiyaku Kojo) to a final concentration of 2 mg/mL, and the solution was intraperitoneally administered to a KM1334 administrated group at a dose of 200 μL for each mouse once a day on days 21, 25, 28, 32, 35 and 39 from the initial sensitization of the mouse collagen-induced arthritis model. […] The change with time of edemas of all limbs in collagen-induced arthritis was evaluated by the scoring from 0 to 4 in each limb to a total of 16 at the maximum score in all limbs. […]

[3] = adjuvant-untreated paw, score 0 to 4, mean ± standard error
[4] = urine day 20 to 21, KM1334 intraperitoneally, vs saline group

B1: KM1334: anti-FGF-8 neutralizing monoclonal antibody produced by hybridoma KM1334 (FERM BP-5451), mouse IgG1 subclass (antibody, V domains shown)
VH: QVQLQQSGAEVARPGASVKLSCKASGYTFTDYYLNWVKQRSGQGLEWIGEIDPGSDSIYYNENLEGRATLTADKSSSTAYMQLNSLTSEDSAVYFCARYGYSRYDVRFVYWGQGTLVTVST
VL: DVLMTQTPLSLPVSLGDQASISCRSSQSLVHSNGRTYLEWYLQKPGQSPKVLIYKVSNRISGVPDRFSGSGSGTDFTLKISRVEAEDLGVYFCFQGSHVPYTFGGGTKLEIK
[1]; Table 1, soft X-ray of calcaneus, adjuvant-untreated paw, day 21, maximum 5, mean ± standard error
  Bone destruction score: 3.2 ± 0.5
[1]; Table 1, vs saline group, not significant
  Bone destruction score (% inhibition): 27%
[1]; [3]
  Pathological score: Blood cell plasma leak to articular cavity: 1.6 ± 0.3
  Pathological score: Blood leak around joint: 2.0 ± 0.4
[1]; day 21, 2 mg/mL, 0.5 mL per 100 g intraperitoneally, vs saline group
  inhibition of the increase in paw volume, adjuvant-untreated paw: 69%
[1]; urine day 20 to 21, KM1334 intraperitoneally, not significant
  decrease of the increase in amount of hydroxyproline in urine: 48%
[1]; [4]
  inhibition of the increase in amount of deoxypyridinoline in urine (deoxypyridinoline/creatinine ratio): 41%
  inhibition of the increase in amount of glycosaminoglycan in urine (glycosaminoglycan/creatinine ratio): 73%
[1]; vs saline group
  Blood cell plasma leak to articular cavity (Percent inhibition): 41%
  Blood leak around joint (Percent inhibition): 41%
[2]
  inhibition of the arthritic score: 34%
